One block for each binder: values may come before it.
Key:
Conditions in all cases: remark: other sources report otherwise
HLA-A*0201 (human) [1] = test: competitive inhibition assay, purified HLA
HLA-A*0201 (human) [2] = test: competitive binding assay, purified HLA
HLA-A*6802 (human) [3] = test: competitive binding assay, purified HLA
HLA-A*6802 (human) [4] = test: competitive inhibition assay, purified HLA
HLA-A*0206 (human) [5] = test: competitive binding assay, purified HLA
HLA-A*0206 (human) [6] = test: competitive inhibition assay, purified HLA

IC50 (HLA-A*0201 (human) [1]): 200 nM
Binder: VMAGVGSPYV [Her2/neu.773]

IC50 (HLA-A*0201 (human) [2]): 50 nM
IC50 (HLA-A*0201 (human) [1]): 50 nM
Binder: YLQLVFGIEV [MAGE2.157]

IC50 (HLA-A*6802 (human) [3]): 2000 nM
IC50 (HLA-A*6802 (human) [4]): 2000 nM
Binder: VVLGVVFGI [Her2/neu.665]

IC50 (HLA-A*0206 (human) [5]): 80 nM
IC50 (HLA-A*0206 (human) [6]): 80 nM
Binder: YLSGANLNV [CEA.605V9]

From patent US20030224036A1, “Hla class I a2 tumor associated antigen peptides and vaccine compositions” (priority 1999, published 2003)
